Consider 2 proteins from doi:10.1101/2024.06.27.600912 (bioRxiv, 2024).

The data set deals with the molecule itself. The experiment in a line: cryo-EM structure.

B1: MORC2 phosphodead mutant (S725A, S730A, S739A, S743A, S777A, S779A), full length (natural protein)
chain: MAFTNYSSLNRAQLTFEYLHTNSTTHEFLFGALAELVDNARDADATRIDIYAERREDLRGGFMLCFLDDGAGMDPSDAASVIQFGKSAKRTPESTQIGQYGNGLKSGSMRIGKDFILFTKKEDTMTCLFLSRTFHEEEGIDEVIVPLPTWNARTREPVTDNVEKFAIETELIYKYSPFRTEEEVMTQFMKIPGDSGTLVIIFNLKLMDNGEPELDIISNPRDIQMAETSPEGTKPERRSFRAYAAVLYIDPRMRIFIHGHKVQTKRLSCCLYKPRMYKYTSSRFKTRAEQEVKKAEHVARIAEEKAREAESKARTLEVRLGGDLTRDSRVMLRQVQNRAITLRREADVKKRIKEAKQRALKEPKELNFVFGVNIEHRDLDGMFIYNCSRLIKMYEKVGPQLEGGMACGGVVGVVDVPYLVLEPTHNKQDFADAKEYRHLLRAMGEHLAQYWKDIAIAQRGIIKFWDEFGYLSANWNQPPSSELRYKRRRAMEIPTTIQCDLCLKWRTLPFQLSSVEKDYPDTWVCSMNPDPEQDRCEASEQKQKVPLGTFRKDMKTQEEKQKQLTEKIRQQQEKLEALQKTTPIRSQADLKKLPLEVTTRPSTEEPVRRPQRPRSPPLPAVIRNAPSRPPSLPTPRPASQPRKAPVISSTPKLPALAAREEASTSRLLQPPEAPRKPANTLVKTASRPAPLVQQLSPSLLPNSKSPREVPSPKVIKTPVVKKTEAPIKLAPATPSRKRAVAVADEEEVEEEAERRKERCKRGRFVVKEEKKDSNELADAAGEEDSADLKRAQKDKGLHVEVRVNREWYTGRVTAVEVGKHVVRWKVKFDYVPTDTTPRDRWVEKGSEDVRLMKPPSPEHQSLDTQQEGGEEEVGPVAQQAIAVAEPSTSECLRIEPDTTALSTNHETIDLLVQILRNCLRYFLPPSFPISKKQLSAMNSDELISFPLKEYFKQYEVGLQNLCNSYQSRADSRAKASEESLRTSERKLRETEEKLQKLRTNIVALLQKVQEDIDINTDDELDAYIEDLITKGD
For the protein B1, the binding result is given as “binds”.

B2: full-length MORC2 ATPase-dead mutant S87A (natural protein)
chain: MAFTNYSSLNRAQLTFEYLHTNSTTHEFLFGALAELVDNARDADATRIDIYAERREDLRGGFMLCFLDDGAGMDPSDAASVIQFGKAAKRTPESTQIGQYGNGLKSGSMRIGKDFILFTKKEDTMTCLFLSRTFHEEEGIDEVIVPLPTWNARTREPVTDNVEKFAIETELIYKYSPFRTEEEVMTQFMKIPGDSGTLVIIFNLKLMDNGEPELDIISNPRDIQMAETSPEGTKPERRSFRAYAAVLYIDPRMRIFIHGHKVQTKRLSCCLYKPRMYKYTSSRFKTRAEQEVKKAEHVARIAEEKAREAESKARTLEVRLGGDLTRDSRVMLRQVQNRAITLRREADVKKRIKEAKQRALKEPKELNFVFGVNIEHRDLDGMFIYNCSRLIKMYEKVGPQLEGGMACGGVVGVVDVPYLVLEPTHNKQDFADAKEYRHLLRAMGEHLAQYWKDIAIAQRGIIKFWDEFGYLSANWNQPPSSELRYKRRRAMEIPTTIQCDLCLKWRTLPFQLSSVEKDYPDTWVCSMNPDPEQDRCEASEQKQKVPLGTFRKDMKTQEEKQKQLTEKIRQQQEKLEALQKTTPIRSQADLKKLPLEVTTRPSTEEPVRRPQRPRSPPLPAVIRNAPSRPPSLPTPRPASQPRKAPVISSTPKLPALAAREEASTSRLLQPPEAPRKPANTLVKTASRPAPLVQQLSPSLLPNSKSPREVPSPKVIKTPVVKKTESPIKLSPATPSRKRSVAVSDEEEVEEEAERRKERCKRGRFVVKEEKKDSNELSDSAGEEDSADLKRAQKDKGLHVEVRVNREWYTGRVTAVEVGKHVVRWKVKFDYVPTDTTPRDRWVEKGSEDVRLMKPPSPEHQSLDTQQEGGEEEVGPVAQQAIAVAEPSTSECLRIEPDTTALSTNHETIDLLVQILRNCLRYFLPPSFPISKKQLSAMNSDELISFPLKEYFKQYEVGLQNLCNSYQSRADSRAKASEESLRTSERKLRETEEKLQKLRTNIVALLQKVQEDIDINTDDELDAYIEDLITKGD
On to B2, for which the binding result is “binds”.
